According to US20210253724A1:
Positions count from the first letter of the chain named. Blank lines part the entries; values can stand above or below the binder they belong to.

Key:
[1] = molecular target: hu N(A2-B2)A-avi-His B (human); experiment: SPR (Biacore T200), CEA construct immobilised, Fab as analyte, 1:1 Langmuir fit
[2] = molecular target: human CEACAM5 (CEA) on cells (human) (UniProt P06731); experiment: flow cytometry on MKN45 cells; design: unit not given beside the values
Chain of human CEACAM5 (CEA) on cells (human) (P06731 35-685 E398K limits assumed): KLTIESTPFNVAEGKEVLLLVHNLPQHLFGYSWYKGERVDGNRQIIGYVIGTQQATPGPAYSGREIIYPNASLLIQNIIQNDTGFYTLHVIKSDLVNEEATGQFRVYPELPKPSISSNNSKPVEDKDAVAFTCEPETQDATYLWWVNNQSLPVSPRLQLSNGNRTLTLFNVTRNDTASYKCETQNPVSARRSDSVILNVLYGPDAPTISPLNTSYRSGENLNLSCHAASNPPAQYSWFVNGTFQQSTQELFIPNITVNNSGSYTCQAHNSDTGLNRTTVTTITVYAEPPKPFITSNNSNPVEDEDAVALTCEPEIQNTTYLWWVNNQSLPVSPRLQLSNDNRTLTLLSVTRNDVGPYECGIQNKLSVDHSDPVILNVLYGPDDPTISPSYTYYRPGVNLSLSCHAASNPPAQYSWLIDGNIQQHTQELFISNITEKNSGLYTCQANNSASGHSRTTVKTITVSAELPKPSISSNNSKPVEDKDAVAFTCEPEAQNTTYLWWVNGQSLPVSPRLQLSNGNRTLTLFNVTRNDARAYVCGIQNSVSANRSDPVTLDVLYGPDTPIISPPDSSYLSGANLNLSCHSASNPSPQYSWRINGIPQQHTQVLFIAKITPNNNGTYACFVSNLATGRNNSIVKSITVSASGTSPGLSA

Chain of hu N(A2-B2)A-avi-His B (human) (P06731 whole entry): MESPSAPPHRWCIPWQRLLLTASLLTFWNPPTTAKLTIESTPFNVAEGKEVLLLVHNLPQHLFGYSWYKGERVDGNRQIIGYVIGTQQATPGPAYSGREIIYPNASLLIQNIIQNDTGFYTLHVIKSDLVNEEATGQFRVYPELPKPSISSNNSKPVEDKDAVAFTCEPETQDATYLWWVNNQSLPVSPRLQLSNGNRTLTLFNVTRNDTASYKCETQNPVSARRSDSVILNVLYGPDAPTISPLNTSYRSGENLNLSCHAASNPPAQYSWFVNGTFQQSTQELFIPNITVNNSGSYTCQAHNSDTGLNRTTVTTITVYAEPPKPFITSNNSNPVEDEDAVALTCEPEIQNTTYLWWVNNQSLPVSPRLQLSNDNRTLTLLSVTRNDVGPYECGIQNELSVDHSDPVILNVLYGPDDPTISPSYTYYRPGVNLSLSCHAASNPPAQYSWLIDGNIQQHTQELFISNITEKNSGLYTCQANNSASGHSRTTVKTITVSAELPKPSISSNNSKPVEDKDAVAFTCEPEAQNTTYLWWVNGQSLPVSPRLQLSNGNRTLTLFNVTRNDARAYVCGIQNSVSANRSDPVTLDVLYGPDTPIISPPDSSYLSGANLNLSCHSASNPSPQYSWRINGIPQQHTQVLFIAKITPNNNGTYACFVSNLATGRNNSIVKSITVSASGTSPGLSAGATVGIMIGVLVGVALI

Kd [1]: 0.559 nM
B1: P1AE0289 CEA (A5B7) Fab (parental murine antibody) (Fab, V domains shown)
VH: EVKLVESGGGLVQPGGSLRLSCATSGFTFTDYYMNWVRQPPGKALEWLGFIGNKANGYTTEYSASVKGRFTISRDKSQSILYLQMNTLRAEDSATYYCTRDRGLRFYFDYWGQGTTLTVSS
VL: QTVLSQSPAILSASPGEKVTMTCRASSSVTYIHWYQQKPGSSPKSWIYATSNLASGVPARFSGSGSGTSYSLTISRVEAEDAATYYCQHWSSKPPTFGGGTKLEIK

AUC [2]: 2090
B2: P1AE3108 (antibody, IgG1, V domains shown)
VH: QVQLVQSGAEVKKPGSSVKVSCKASGFNIKDSYMHWVRQAPGQGLEWMGWIDPENGDTEYAPKFQGRVTITTDESTSTAYMELSSLRSEDTAVYYCNEGTPTGPYYFDYWGQGTLVTVSS
VL: EIQMTQSPSSLSASVGDRVTITCRASQSISSYMHWYQQKPGKAPKLLIYSTSNLASGVPSRFSGSGSGTDFTLTISSLQPEDFATYYCQQRSSYPLTFGGGTKLEIK

Kd [1]: 1.7 nM
B3: P1AE4135 Fab derived from P1AE2164 (Fab, V domains shown)
VH: EVQLLESGGGLVQPGGSLRLSCAASGFTFTDYYMNWVRQAPGKGLEWLGFIGNKANGYTTEYSASVKGRFTISRDKSKNTLYLQMNSLRAEDTATYYCTRDRGLRFYFDYWGQGTTVTVSS
VL: QTVLTQSPATLSLSPGERATLSCRASSSVTYIHWYQQKPGSSPKSWIYATSNLASGIPARFSGSGSGTDYTLTISSLEPEDFAVYYCQHWSSKPPTFGQGTKLEIK

Kd [1]: 1.47 nM
B4: P1AE4138 Fab derived from P1AE2167 (Fab, V domains shown)
VH: B3 VH
VL: B3 VL with Q1E, T2I, S41Q, S42A, K44R, Y70F

Kd [1]: 2.64 nM
B5: P1AE4142 Fab derived from P1AE2181 (Fab, V domains shown)
VH: B3 VH with L48V, T95V, T99A
VL: B3 VL with Q1E, T2I, Y70F

Kd [1]: 7.58 nM
B6: P1AE4139 Fab derived from P1AE2176 (Fab, V domains shown)
VH: B3 VH with L48V, K76N, T95V
VL: B3 VL with Q1E, T2I, Y70F

Kd [1]: 11.3 nM
B7: P1AE4137 Fab derived from P1AE2166 (Fab, V domains shown)
VH: B3 VH
VL: B3 VL with Q1E, T2I, Y70F

Kd [1]: 1.83 nM
B8: P1AE4141 Fab derived from P1AE2179 (Fab, V domains shown)
VH: B3 VH with L48V, T95V, T99A
VL: B3 VL

Kd [1]: 7.62 nM
B9: P1AE4140 Fab derived from P1AE2177 (Fab, V domains shown)
VH: B3 VH with L48V, K76N, T95V
VL: B3 VL with Q1E, T2I, S41Q, S42A, K44R, Y70F

Kd [1]: 1.25 nM
B10: P1AE4136 Fab derived from P1AE2165 (Fab, V domains shown)
VH: B3 VH
VL: B3 VL with S41Q, S42A, K44R, S45L, W46L, Y70F

Kd [1]: 2.92 nM
B11: P1AE4143 Fab derived from P1AE2182 (Fab, V domains shown)
VH: B3 VH with L48V, T95V, T99A
VL: B3 VL with Q1E, T2I, S41Q, S42A, K44R, Y70F
